In patent US6521814B1, “Use of ligands for treatment of diseases responsive to retinoids” (Institut National de la Santa et de la Recherche Medicale, priority 1997, dated 2003):

How the values were obtained:
D2R promoter = D2R promoter CAT reporter assay in transfected COS-1 cells, reporter alone; type: cell-based, rat; conditions: C1 reporter-transfected COS-1 cells, no receptor vector; 10^−7 M
Excerpt: Expression Vectors. The C1 reporter construct was obtained by subcloning the HindIII fragment spanning the 5 ′ promoter region of the D2R gene (positions −495 to +273), in the reporter plasmid pBLCAT3 (Luckow, B. & Schütz, G., Nucleic Acids Res. 15:5490 (1987)). The C2 reporter plasmid was constructed by subcloning the SmaI-XhoI fragment (positions −76 to +273) in the same position. The C3 and C4 reporters were generated by cloning a 29 bp synthetic oligonucleotide corresponding, respectively, to the natural rat D2R RARE sequence and the mutated one into pBLCAT2 (Luckow, B. & Schütz, G., Nucleic Acids Res. 15:5490 (1987)). The polylinker in pBLCAT2 is located upstream of the herpes simplex virus 1 (HSV1) thymidine kinase (TK) promoter, from position −105 to +51. To measure transfection efficiency the plasmid pCH110 carrying the β-galactosidase gene (Pharmacia) was used. Mouse […], as well as mouse RXRα, β and γ expression vectors were derived from the parental pSG5 vector (Green, S., et al., Nucleic Acids Res. 16:369 (1988)).
COS-1 cells were used for transient transfection assays. Cells were grown in Dulbecco's modified Eagle's medium supplemented with 5% fetal calf serum.
Several hours before transfection, the medium was replaced with fresh medium containing 5% charcoal-treated FCS. […]

[1] = target: T1, RARα(ΔAB)/RXRα(ΔAB) heterodimer (Mus musculus, UniProt P11416;P28700 P11416:88-462,P28700:140-467); assay: competition; competes more efficiently than native RARE D2; conditions: tags: ΔAB truncations, bacterially expressed, from H. Gronemeyer
T1 sequence 1: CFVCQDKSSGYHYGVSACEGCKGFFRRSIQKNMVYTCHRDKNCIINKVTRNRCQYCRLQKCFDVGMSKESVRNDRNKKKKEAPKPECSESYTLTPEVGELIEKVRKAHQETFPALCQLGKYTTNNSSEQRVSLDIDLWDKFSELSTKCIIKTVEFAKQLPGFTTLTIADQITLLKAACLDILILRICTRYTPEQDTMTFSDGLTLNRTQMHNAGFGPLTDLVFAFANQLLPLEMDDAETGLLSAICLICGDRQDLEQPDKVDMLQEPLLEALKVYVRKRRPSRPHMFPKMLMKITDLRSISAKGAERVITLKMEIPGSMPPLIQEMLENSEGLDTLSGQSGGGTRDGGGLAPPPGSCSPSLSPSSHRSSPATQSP
T1 sequence 2: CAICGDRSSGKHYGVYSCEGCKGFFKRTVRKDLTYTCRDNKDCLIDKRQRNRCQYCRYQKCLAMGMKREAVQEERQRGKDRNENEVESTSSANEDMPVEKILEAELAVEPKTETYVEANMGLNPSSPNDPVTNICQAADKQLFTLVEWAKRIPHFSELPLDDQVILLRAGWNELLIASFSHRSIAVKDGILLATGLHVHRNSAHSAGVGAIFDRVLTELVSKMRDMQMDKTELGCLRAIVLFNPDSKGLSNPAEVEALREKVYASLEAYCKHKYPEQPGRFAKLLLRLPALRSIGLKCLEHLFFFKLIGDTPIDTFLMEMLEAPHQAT
Excerpt: (§1) DNA binding competition assays. Gel shift analysis using labeled RARE D2 (SEQ ID NO:2) and recombinant RARα and RXRα as indicated. As competitors, RARE D2 (SEQ ID NO:2), RAREβ2 (SEQ ID NO:5) and the mutant […] and […] cold oligonucleotides (SEQ ID NO:3) were used as indicated at 5, 50- and 100-fold molar excess. The black arrowhead indicates the shifted complex.
(§2) To further characterize the D2R RARE element and its binding affinity to retinoid receptors, mutations were introduced into this sequence generating D2 ml (SEQ ID NO:3) and D2 m2 (SEQ ID NO:4) (FIG. 7A). These mutated oligonucleotides were used for competition in gel-shift assays (FIG. 8).
(§3) DNA Binding Assays. A 29-bp synthetic oligonucleotide (SEQ ID NO:2) corresponding to the RARE region in the D2R promoter (SEQ ID NO:1) (from positions −76 to −49), in addition to two mutated oligonucleotides (SEQ ID NOs:3 and 4) (FIG. 7A) were used in gel retardation assays. A synthetic oligonucleotide corresponding to the RARE-β2 (SEQ ID NO:5) (Mader, S., et al., *J. Biol. Chem.* 268:591–600 (1993)) was used as positive control. Bacterially-expressed purified mouse RARα (ΔAB) and RXRα (ΔAB) proteins were kindly provided by H. Gronemeyer.

[2] = target: T1, RARα(ΔAB)/RXRα(ΔAB) heterodimer; assay: competition; drastic decrease of labeled RARE D2 complex at 5-fold excess, complete at 50-fold; stronger than RARE D2; conditions: tags: ΔAB truncations, bacterially expressed, from H. Gronemeyer
Excerpt: as §1, §3

RARα/RXRγ = target: T2, RARα/RXRγ (Mus musculus, UniProt P11416;P28705 P11416:1-462,P28705:1-463); assay: cell_activity; C3 TK-CAT reporter with one RARE D2 copy, t-RA and 9-cis-RA; conditions: tags: pSG5 expression vectors, COS-1 cells; label: 32P
T2 sequence 1: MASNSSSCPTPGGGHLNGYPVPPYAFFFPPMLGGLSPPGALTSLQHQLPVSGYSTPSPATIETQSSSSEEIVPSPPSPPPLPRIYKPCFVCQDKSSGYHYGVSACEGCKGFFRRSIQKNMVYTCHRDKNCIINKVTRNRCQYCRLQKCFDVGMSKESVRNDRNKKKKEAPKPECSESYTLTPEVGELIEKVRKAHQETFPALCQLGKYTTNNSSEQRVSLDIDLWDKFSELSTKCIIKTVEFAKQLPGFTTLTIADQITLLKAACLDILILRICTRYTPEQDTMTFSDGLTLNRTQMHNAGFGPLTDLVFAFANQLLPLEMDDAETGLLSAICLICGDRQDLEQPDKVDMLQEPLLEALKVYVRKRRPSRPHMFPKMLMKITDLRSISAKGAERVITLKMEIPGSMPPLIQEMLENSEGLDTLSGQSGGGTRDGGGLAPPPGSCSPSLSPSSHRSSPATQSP
T2 sequence 2: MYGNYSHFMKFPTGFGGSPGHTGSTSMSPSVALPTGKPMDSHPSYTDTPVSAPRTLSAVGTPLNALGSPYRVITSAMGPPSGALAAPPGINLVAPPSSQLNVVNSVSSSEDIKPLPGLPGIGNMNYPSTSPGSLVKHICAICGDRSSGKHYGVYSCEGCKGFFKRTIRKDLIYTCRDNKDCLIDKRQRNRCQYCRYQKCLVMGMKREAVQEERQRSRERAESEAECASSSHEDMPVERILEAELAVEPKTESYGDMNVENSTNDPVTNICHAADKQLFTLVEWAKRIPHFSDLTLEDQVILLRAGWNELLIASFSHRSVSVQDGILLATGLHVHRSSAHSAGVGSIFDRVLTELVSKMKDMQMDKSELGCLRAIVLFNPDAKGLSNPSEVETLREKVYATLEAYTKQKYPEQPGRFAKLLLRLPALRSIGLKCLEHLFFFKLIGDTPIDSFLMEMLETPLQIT

[3] = target: T1, RARα(ΔAB)/RXRα(ΔAB) heterodimer; assay: competition; no competition even at 100-fold excess; conditions: tags: ΔAB truncations, bacterially expressed, from H. Gronemeyer
Excerpt: as §1, §2, §3

`CC1=C(/C=C/C(C)=C\C=C\C(C)=C\C(=O)O)C(C)(C)CCC1` [9-cis-RA, 9-cis RA] was tested, and the “changes in CAT activity” value (D2R promoter) was “no significant changes”.

B1: D2m2 (dsDNA)
DNA 1: AGCTTCCTCGTGACCAGGGTGACCCCGCG
DNA 2: CGCGGGGTCACCCTGGTCACGAGGAAGCT
B1: binds [1].

B2: RAREβ2 (dsDNA)
DNA 1: GGGTAGGGTTCACCGAAAGTTCACTG
DNA 2: CAGTGAACTTTCGGTGAACCCTACCC
B2: binds [2].

B3: RARE D2 (dsDNA)
DNA 1: AGCTTCCTCGTGGCCAGGGTGACCCCGCG
DNA 2: CGCGGGGTCACCCTGGCCACGAGGAAGCT
Work on B3 yielded an activity (RARα/RXRγ) of 11 fold.

B4: D2m1 (dsDNA)
DNA 1: AGCTTCCTCGGTGCGAGGGGTACGCCGCG
DNA 2: CGCGGCGTACCCCTCGCACCGAGGAAGCT
B4: no binding [3].
